The nature of this data set: amyloid nucleation score (Sup35N fusion, yeast selection) (log enrichment); library NNK3; higher = more nucleation; inactive = no reads after selection. Put shortly:
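For the nucleation score, DiMSum gave the log enrichment of output over input reads, centred on the mode score of non-aggregating sequences. Psi-negative yeast expressing Sup35N fused to peptides of 20 random codons were induced with 100 μM copper sulfate for 24 hours and grown 7 days at 30°C on medium lacking adenine and uracil. Input and output plasmid inserts were Illumina-sequenced, and sequences with under 100 input reads were excluded.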

Amyloid nucleation score data for 132 substances are collected here from the supplement of paper PMC12042874.

± gives the uncertainty stated by the source.

As for RHVQG, the amyloid nucleation score entry was “inactive”.
As for TLVIHIN, the entry is “inactive”; as for ALKSPDSD, “inactive”; as for MSGTLCPSHNILETDCRVQV, “inactive”.
As for SDRNSEGLTLF, the entry is “inactive”.
In the case of VTFTHKEHGRPNTRSFTKYL it was “inactive”.
For the substance VYDMDNVRYNHRGNTERFSG, the amyloid nucleation score was 0.109 ± 0.28.
Take MWMLLFGCSSCWWSCNRLSP: the amyloid nucleation score is -0.239 ± 0.8.
Take YRWAFRWRLG: the amyloid nucleation score entry is “inactive”.
In the case of KYYYVLGMQMYRHLYWTACV it was “inactive”; in that of CFPASCIQ, “inactive”; in that of MLMAPSYEYT, -0.209 ± 0.78.
In the case of VSFFDQTKASGYSLRLMLFM it was “inactive”; in that of SMCNTSLYWLDHGADLLRSL, “inactive”; in that of EMCRN, “inactive”.
In the case of LDQTSRIVYVFTCSYWLDKV it was “inactive”; in that of LPGFSTCFARCDWWEVQPQG, “inactive”; in that of ALFTESF, “inactive”.
With ICMYRRLRISCVLAYRFRHF, the amyloid nucleation score entry is “inactive”.
Take QRVWRMMQNLSRW: the amyloid nucleation score result is “inactive”.
As for LSIVLGEDLMRCTRSDSVWK, the entry is “inactive”; as for PKALVFNLEDDLQGIWSVT, 2.1 ± 0.079.
In the case of SEMELDLSFSPPYRGLPIIV it was “inactive”; in that of FCLMHRRWMVVCACIYRWLK, “inactive”.
As for PRIQKSWVGAM, the entry is “inactive”; as for EYPFFIKSQGR, “inactive”.
For FLPDSFESYEKEVHTMDESS, the amyloid nucleation score result is “inactive”.
As for PNCLMS, the amyloid nucleation score entry is “inactive”.
Take RNVQLMVPFTAGVLWVLQCK: the amyloid nucleation score result was “inactive”.
Consider VYIRTGN, for which the amyloid nucleation score entry was “inactive”.
With KSALTRPDARPVRYRQPTHS, the amyloid nucleation score entry is “inactive”.
As for NTSGKCVKIDVRLNTVTS, the amyloid nucleation score entry was “inactive”.
In the case of KGDCQWVVPYVIHSNHVRAG it was “inactive”.
In the case of LGMCSHESYNLHEEICIW it was “inactive”; in that of GVHVVYCVRFSEGIVYTSGF, 0.906 ± 0.2; in that of YSGTRVPR, 0.471 ± 0.29.
Regarding SVSLYLNLVSLVYCLVCP, the amyloid nucleation score came out at 1.26 ± 0.14.
In the case of FNVYMIITNFLDPL it was 2.64 ± 0.062.
In the case of VDYLRVLWQAQFGNFELWSR it was “inactive”; in that of NRVLSVFDLFLRVAFASRFR, “inactive”.
In the case of QSASHRP, the amyloid nucleation score entry was “inactive”.
Turning to NTGLAFTSYMTMDLLCISGA, the amyloid nucleation score entry is “inactive”.
VMRIVATQRAGWTGTREPGM: the amyloid nucleation score result was “inactive”.
In the case of TCTCKVRLYCTMARSPFIMG it was “inactive”; in that of ISIPLLIMLPELGTASMVNG, “inactive”.
LSVTRNACTEPFRGFLIGLY: the amyloid nucleation score result was “inactive”.
As for KLFYQMILYRNG, the entry is “inactive”; as for YLPAHIYMK, “inactive”.
In the case of SYISQEFYDFCFKPYLGSLY, the amyloid nucleation score result was “inactive”.
Take VGRVRQVAQLDMGPDMYDRV: the amyloid nucleation score entry is “inactive”.
In the case of MNRDTYSMWSVKDKMTFI it was -0.124 ± 0.75; in that of NYSSAQEYKVSQERIS, “inactive”; in that of WFNTTNSGVEP, “inactive”.
In the case of QKMGRGARKCMQLYVMGKDL it was “inactive”; in that of LSECLRHGSDDTRFEVVGQD, 1.34 ± 0.097.
On to NILPRRGEQAV, for which the amyloid nucleation score result is “inactive”.
As for PVECLDNDQGFLWPEVRVRG, the entry is “inactive”; as for YSRSTSSEMEAERGSAWLES, “inactive”; as for SLSLWESRCQITFPLVIKVE, -0.017 ± 0.7.
In the case of ICTPENT it was -0.303 ± 0.9.
On to LSVLTL, for which the amyloid nucleation score entry is “inactive”.
In the case of KAIDFADDELRPIYMTFRVQ it was “inactive”; in that of SSRTTIQ, “inactive”; in that of VEWLTSLVVIFWNFGKNKFL, “inactive”.
As for EDLNPSSVLYRPSIDFM, the entry is “inactive”; as for ELAHKIMAM, “inactive”; as for VAVLVNALSLPEVGKGVVRR, 1.84 ± 0.083.
The substance VGVYITMVYVSIKENRVEGN came in with an amyloid nucleation score of 0.804 ± 0.17.
Regarding RLIQTLWIFIKVRSRALVTH, the amyloid nucleation score result is “inactive”.
As to VWSQIERLKHHPEFHMWC, the amyloid nucleation score entry is “inactive”.
As for PCFLMGPVIPIVFALYKILV, the entry is “inactive”.
On to VFFYAASD, for which the amyloid nucleation score entry is “inactive”.
Regarding SYLYVTKYVLFDR, the amyloid nucleation score entry is “inactive”.
In the case of SGIRDHLMRTKFDFVFKM it was “inactive”; in that of LLNWSYIKRLFLVGIKSGHR, “inactive”; in that of RDGNRVQMVSIPIQVSAMLG, “inactive”.
As for KMFSLWFQ, the figure is 1.69 ± 0.12.
As for AKCMSNYYERCVLNTERREL, the entry is “inactive”; as for DLIGYSEEV, 0.449 ± 0.19.
With TSVDGLCSFMDLRL, the amyloid nucleation score result is “inactive”.
As to SRTFVRECKWGFVCRYKVWV, the amyloid nucleation score result was “inactive”.
As to QRMMHFVLCVGFDRGIVPVK, the amyloid nucleation score result was “inactive”.
For RRSCCLVLTIRVFCRICRDE, the amyloid nucleation score entry was “inactive”.
As for GPDYHKHYRTYLPRTAFVGF, the figure is 1.27 ± 0.17; as for EGFFYCCHFFRLYYNVVVLL, 2.02 ± 0.064.
In the case of GCGVC it was -0.609 ± 0.98; in that of CLLPFTTGYDFFLHQIEGWG, “inactive”; in that of KDVSPVCNVPMSGWWTTAFL, “inactive”.
In the case of TISLGE it was “inactive”; in that of VLTLLMKVEHTGVSHSVGRV, 1.02 ± 0.19; in that of LYDSSTALATVSDHFVEWLS, “inactive”.
In the case of ERVTRSMWTVGKRYRTGK, the amyloid nucleation score entry was “inactive”.
Regarding KALSCSRSFAVKVVYTQDP, the amyloid nucleation score result was “inactive”.
In the case of DTRGTARKPKSLSTRLEIRV it was “inactive”; in that of CLFYIRS, “inactive”.
As for FYAYVSVDTVCSVAICLICT, the entry is “inactive”.
On to VNFLSGWEPVIVKYHRSA, for which the amyloid nucleation score result is “inactive”.
Take SSDECYSNHCIWCVKQ: the amyloid nucleation score is 3.16 ± 0.061.
As for STWLSNWYY, the figure is -0.759 ± 1.1; as for KFLISFRRSY, 2.07 ± 0.076.
As to YCGWLCSSPPVQNV, the amyloid nucleation score entry is “inactive”.
RCLCDPGYCCIFISENWIL came in with an amyloid nucleation score of 1.74 ± 0.064.
In the case of EGSSSLYCSELRFV it was “inactive”; in that of TLRVYAMVLTWAPKLSFWRS, “inactive”.
With NGVVLLQIKIRDPRSCWWGV, the amyloid nucleation score entry was “inactive”.
As for RMLTHKQIIIRTVWTQYVYI, the entry is “inactive”; as for RSVVLIPDLFGNL, “inactive”.
On to HVGLRAKLTFLDRVYLSILS, for which the amyloid nucleation score result was “inactive”.
For the substance GGMGSLCSTREGMDWCPRGY, the amyloid nucleation score entry was “inactive”.
Turning to GLPNLASYSPPPINAKYIGD, the amyloid nucleation score entry is “inactive”.
In the case of VVRIGSRACGLRRKVCGGFG it was “inactive”.
As for PVLNAAVHDNFFTADHIRKK, the entry is “inactive”; as for GIMDLDEGLET, “inactive”.
In the case of SYMQMTELKEAP it was “inactive”; in that of RVYLRGRIDFKGTTFGGFEK, 1.63 ± 0.059; in that of SYLNVLPNFLRLTAICVVFR, “inactive”.
As to LGVCSGH, the amyloid nucleation score result was “inactive”.
In the case of EHEFYTKDNFLRGIFYNTNL it was “inactive”; in that of PFVFTLNDQCGGIRSLICVL, “inactive”; in that of LVYTA, “inactive”.
On to IFRSHMQSLGK, for which the amyloid nucleation score result was “inactive”.
Take IRLSQNWGSYVCSNTLNSER: the amyloid nucleation score entry is “inactive”.
In the case of YAWLCAASRYKTMVESLAEF it was “inactive”; in that of RFRFILRCC, “inactive”; in that of YLHAEYRMCKLIFKMEEFRD, 0.276 ± 0.46.
As for FVCLLCPMYYVHSTMWMSAR, the figure is 2.01 ± 0.057.
In the case of CNVLEKYTLE it was “inactive”; in that of GVKYVDNIGLRGWFFCRHAV, “inactive”; in that of IILVSYVREMKHSSSSFVLS, 2.04 ± 0.098.
ISRSGNLLGYKDLLVATKSG: the amyloid nucleation score result was “inactive”.
In the case of DDDLHWWKYRCVACDSLWEI it was “inactive”.
As for SVFFPVEFTFRVGETLCCFF, the figure is 3.01 ± 0.062.
